In patent publication US20140315817A1 one finds Kd data, which are given here for one substance.

In this test the target is FLAG-tagged, single-chain human FcRn (human) (UniProt P61769). Kind of test: ELISA at pH 5.5, HSA variant coated, FLAG-tagged single-chain FcRn titrated; column '~Kd at pH 5.5', rank 13; the sheet gives the mutation of HSA-18 as V424I. For orientation: In an ELISA, binding on a coated surface is turned into a signal by an enzyme label.
Chain of FLAG-tagged, single-chain human FcRn (human) (P61769 other isoform, or with tags, fused parts or gaps limits assumed): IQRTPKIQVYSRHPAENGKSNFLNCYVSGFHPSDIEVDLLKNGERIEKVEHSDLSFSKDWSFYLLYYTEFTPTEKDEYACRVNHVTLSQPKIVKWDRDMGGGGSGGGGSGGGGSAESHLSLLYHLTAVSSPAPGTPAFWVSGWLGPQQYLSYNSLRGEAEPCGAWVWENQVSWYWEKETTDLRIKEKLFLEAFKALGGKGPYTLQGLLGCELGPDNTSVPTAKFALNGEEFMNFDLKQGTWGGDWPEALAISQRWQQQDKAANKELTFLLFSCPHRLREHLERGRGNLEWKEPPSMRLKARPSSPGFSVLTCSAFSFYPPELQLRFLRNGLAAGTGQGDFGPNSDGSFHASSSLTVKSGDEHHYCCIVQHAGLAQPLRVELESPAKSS

For orientation: Kd means the concentration at which binding is half-saturated. “hsa-18: full length HSA V241I (from UniProt P02768 25-609)” registered a Kd of more than 100 nM.
